Publication PMC3148250, “Structural Basis for Sequence Specific DNA Binding and Protein Dimerization of HOXA13”

Tests used:
[1] = target: T1, A13DBD V373G (mouse (murine), UniProt Q62424 320-386, V373G); assay: fluorescence anisotropy; 10 mM MgCl2; FA: 20 mM Tris pH 7.5, 80 mM KCl, 10 mM MgCl2, 0.2 mM EDTA, 1 mM DTT, 15 C, 1 nM DNA; NMR complex: 20 mM NaPO4 pH 6.0, 5 mM MgCl2, 10% D2O, 310 K; ITC buffer not given in the material; conditions: protein: recombinant; tags: His-tag removed by thrombin; label: 5' 6-FAM via hexyl linker; hairpin (self-annealing)
[2] = target: T2, A13DBD WT (mouse (murine), UniProt Q62424 320-386); assay: fluorescence anisotropy; 10 mM MgCl2; text fold changes suggest T6*C and T6*U swapped; FA: 20 mM Tris pH 7.5, 80 mM KCl, 10 mM MgCl2, 0.2 mM EDTA, 1 mM DTT, 15 C, 1 nM DNA; NMR complex: 20 mM NaPO4 pH 6.0, 5 mM MgCl2, 10% D2O, 310 K; ITC buffer not given in the material; conditions: protein: recombinant; tags: His-tag removed by thrombin; label: 5' 6-FAM via hexyl linker; hairpin (self-annealing)
[3] = target: T2, A13DBD WT; assay: fluorescence anisotropy; 10 mM MgCl2; FA: 20 mM Tris pH 7.5, 80 mM KCl, 10 mM MgCl2, 0.2 mM EDTA, 1 mM DTT, 15 C, 1 nM DNA; NMR complex: 20 mM NaPO4 pH 6.0, 5 mM MgCl2, 10% D2O, 310 K; ITC buffer not given in the material; conditions: protein: recombinant; tags: His-tag removed by thrombin; label: 5' 6-FAM via hexyl linker; hairpin (self-annealing)
[4] = target: T1, A13DBD V373G; assay: ITC; FA: 20 mM Tris pH 7.5, 80 mM KCl, 10 mM MgCl2, 0.2 mM EDTA, 1 mM DTT, 15 C, 1 nM DNA; NMR complex: 20 mM NaPO4 pH 6.0, 5 mM MgCl2, 10% D2O, 310 K; ITC buffer not given in the material; conditions: protein: recombinant; tags: His-tag removed by thrombin; C5-A5* mismatch with strand 2 as printed
[5] = target: T2, A13DBD WT; assay: as above; conditions: protein: recombinant, tags: His-tag removed by thrombin
[6] = target: T1, A13DBD V373G; assay: ITC; text says 3-4-fold lower affinity; FA: 20 mM Tris pH 7.5, 80 mM KCl, 10 mM MgCl2, 0.2 mM EDTA, 1 mM DTT, 15 C, 1 nM DNA; NMR complex: 20 mM NaPO4 pH 6.0, 5 mM MgCl2, 10% D2O, 310 K; ITC buffer not given in the material; conditions: protein: recombinant; tags: His-tag removed by thrombin; blunt
[7] = target: A13DBD N370A (mouse (murine), UniProt Q62424 320-386, N370A); assay: ITC; text says ~1000-fold lower affinity; FA: 20 mM Tris pH 7.5, 80 mM KCl, 10 mM MgCl2, 0.2 mM EDTA, 1 mM DTT, 15 C, 1 nM DNA; NMR complex: 20 mM NaPO4 pH 6.0, 5 mM MgCl2, 10% D2O, 310 K; ITC buffer not given in the material; conditions: protein: recombinant; tags: His-tag removed by thrombin; blunt
[8] = target: A13DBD F344A (mouse (murine), UniProt Q62424 320-386, F344A); assay: ITC; does not affect DNA binding; FA: 20 mM Tris pH 7.5, 80 mM KCl, 10 mM MgCl2, 0.2 mM EDTA, 1 mM DTT, 15 C, 1 nM DNA; NMR complex: 20 mM NaPO4 pH 6.0, 5 mM MgCl2, 10% D2O, 310 K; ITC buffer not given in the material; conditions: protein: recombinant; tags: His-tag removed by thrombin; blunt
[9] = target: A13DBD V373A (mouse (murine), UniProt Q62424 320-386, V373A); assay: ITC; FA: 20 mM Tris pH 7.5, 80 mM KCl, 10 mM MgCl2, 0.2 mM EDTA, 1 mM DTT, 15 C, 1 nM DNA; NMR complex: 20 mM NaPO4 pH 6.0, 5 mM MgCl2, 10% D2O, 310 K; ITC buffer not given in the material; conditions: protein: recombinant; tags: His-tag removed by thrombin; blunt
[10] = target: A13DBD I366A (mouse (murine), UniProt Q62424 320-386, I366A); assay: as above; conditions: protein: recombinant; tags: His-tag removed by thrombin; blunt
[11] = target: T1, A13DBD V373G; assay: competition; 50 nM already competes with consensus; 4 uM protein; FA: 20 mM Tris pH 7.5, 80 mM KCl, 10 mM MgCl2, 0.2 mM EDTA, 1 mM DTT, 15 C, 1 nM DNA; NMR complex: 20 mM NaPO4 pH 6.0, 5 mM MgCl2, 10% D2O, 310 K; ITC buffer not given in the material; conditions: protein: recombinant; tags: His-tag removed by thrombin; hairpin (self-annealing)

T1 sequence (Q62424 320-386 V373G): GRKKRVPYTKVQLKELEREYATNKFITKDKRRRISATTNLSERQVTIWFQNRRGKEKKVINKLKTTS
T2 sequence (Q62424 320-386): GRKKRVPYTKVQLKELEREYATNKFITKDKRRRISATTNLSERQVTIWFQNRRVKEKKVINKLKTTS
A13DBD F344A, sequence (Q62424 320-386 F344A): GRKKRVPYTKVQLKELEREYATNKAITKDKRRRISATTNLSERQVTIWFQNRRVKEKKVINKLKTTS
A13DBD I366A, sequence (Q62424 320-386 I366A): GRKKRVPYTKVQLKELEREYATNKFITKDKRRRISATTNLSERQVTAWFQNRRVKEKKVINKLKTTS
A13DBD V373A, sequence (Q62424 320-386 V373A): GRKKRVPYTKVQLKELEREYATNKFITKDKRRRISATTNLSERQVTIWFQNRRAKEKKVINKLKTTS
A13DBD N370A, sequence (Q62424 320-386 N370A): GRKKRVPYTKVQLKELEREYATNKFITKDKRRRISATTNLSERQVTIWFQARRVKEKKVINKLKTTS

**Q.** How did the Kd [1] turn out when CAAATGAAATCCCCCATTTCATTG (structured_DNA) [FA T6*C] was run?
**A.** The Kd was 79.3 ± 6.93 nM.

**Q.** What about the Kd [2] of the same binder?
**A.** Its Kd is 5.95 ± 0.64 nM.

**Q.** CAAATAAAATCCCCCATTTTATTTG (structured_DNA) [FA consensus (wt)] was tested. Which Kd [1] did it give?
**A.** The Kd was 56.6 ± 2.25 nM.

**Q.** And the Kd [3]?
**A.** The Kd was 2.19 ± 0.06 nM.

B1: 11-mer T5C (dsDNA)
DNA 1: CAAACAAAATC
DNA 2: GATTTTATTTG
**Q.** With B1 as the binder, how does the Kd [4] read?
**A.** The Kd was 617 nM.

**Q.** What about the Kd ([5]; C5-A5* mismatch with strand 2 as printed) of the same binder?
**A.** Its Kd is 286 nM.

B2: 11-mer duplex WT (dsDNA)
DNA 1: CAAATAAAATC
DNA 2: GATTTTATTTG
**Q.** B2 was tested. Which Kd [6] did it give?
**A.** The Kd was 137 nM.

**Q.** And the Kd [7]?
**A.** The Kd was 862 nM.

**Q.** Does B2 bind [8]?
**A.** Result: binds

**Q.** And the Kd [9]?
**A.** Its Kd is 18.7 nM.

**Q.** And the Kd ([5]; blunt)?
**A.** The Kd was 7.5 nM.

**Q.** And the Kd [10]?
**A.** Its Kd is 43.7 nM.

**Q.** CAAAUAAATCCCCCATTTTATTGTG (structured_DNA, deoxyuridine at position 5) [FA T5U] was tested. Which Kd [3] did it give?
**A.** The Kd was 4.01 ± 0.28 nM.

**Q.** With CAAACAAAATCCCCCATTTTGTTTG (structured_DNA) [FA T5C] as the binder, how does the Kd [1] read?
**A.** The Kd was 616 ± 56.1 nM.

**Q.** And the Kd [3]?
**A.** The Kd was 49.2 ± 4.97 nM.

B3: 11-mer T5U (dsDNA)
DNA 1: CAAAUAAAATC
DNA 2: GATTTTATTTG
modifications: deoxyuridine at T5 (DNA strand)
**Q.** Which Kd ([5]; blunt) does the source give for B3 here?
**A.** Its Kd is 14.5 nM.

**Q.** Does TGACTGACTGACTGCCCCCCAGTCAG (structured_DNA) [Scrambled] bind [11]?
**A.** Result: binds
